In patent US10942185B2, “Therapeutic and diagnostic methods for manipulating phagocytosis through calreticulin and low density lipoprotein-related receptor” (The Board of Trustees of the Leland Stanford Junior …, priority 2010, dated 2021):
“Also recorded” adds a separate entry of the source. Blank lines part the entries; values can stand above or below the molecule they belong to.

Columns and labels:
[1] = test system: primary human cancer cells; test: In vitro phagocytosis assay, primary human cancer cells with human macrophages; assay type: cell-based; conditions: two hours; for phagocytosis of primary human cancer cells, agent alone: compared to IgG1 isotype control
Protocol: (§1) Given the known role of CRT as a pro-phagocytic signal, its correlation with CD47 expression (FIG. 2A), and its ability to be counteracted by CD47 (FIG. 2), we investigated whether the expression of cell surface CRT on cancer but not normal cells could explain the selective targeting of tumor cells by a blocking anti-CD47 antibody. In vitro phagocytosis assays were performed by incubating primary human normal cells or cancer cells with human macrophages in the presence of anti-CD47 antibody. CD47 was expressed on all normal and cancer cells profiled (FIG. 2A and FIG. 7, 9), but expression of calreticulin was primarily restricted to tumor cells (FIG. 1A,B). […] (FIG. 3C).
(§2) Generation of human macrophages and in vitro phagocytosis assays were performed as previously described. Primary human samples or cell lines were incubated with 10 μg/ml IgG1 isotype control (Ebiosciences), 10 μg/ml anti-CD47 antibody (clone B6H12.2, ATCC), 4 μg/ml calreticulin blocking peptide (MBL International Corporation), 10 μg/ml RAP (Fitzgerald Industries International), or 125 μg/ml recombinant CRT human protein (Thermo Scientific). Per MBL, confirmation of blocking activity was performed by Western blot analysis, verified by incubation of an anti-CRT antibody with 5 times higher concentration of the peptide and performing a Western blot analysis to determine if the specific band had been diminished. Cells were then analyzed by fluorescence microscopy to determine the phagocytic index (number of cells ingested per 100 macrophages).

[2] = target: T1, Calreticulin on the cell surface of Molm 13 cells (Homo sapiens, UniProt P27797); test: LRP1 cluster IV-Fc binding to staurosporine-treated Molm 13 cells, flow cytometry
T1 construct: endogenous in cells; host or cells: Molm 13 (human AML cell line), treated with staurosporine
T1 sequence (P27797 18-417): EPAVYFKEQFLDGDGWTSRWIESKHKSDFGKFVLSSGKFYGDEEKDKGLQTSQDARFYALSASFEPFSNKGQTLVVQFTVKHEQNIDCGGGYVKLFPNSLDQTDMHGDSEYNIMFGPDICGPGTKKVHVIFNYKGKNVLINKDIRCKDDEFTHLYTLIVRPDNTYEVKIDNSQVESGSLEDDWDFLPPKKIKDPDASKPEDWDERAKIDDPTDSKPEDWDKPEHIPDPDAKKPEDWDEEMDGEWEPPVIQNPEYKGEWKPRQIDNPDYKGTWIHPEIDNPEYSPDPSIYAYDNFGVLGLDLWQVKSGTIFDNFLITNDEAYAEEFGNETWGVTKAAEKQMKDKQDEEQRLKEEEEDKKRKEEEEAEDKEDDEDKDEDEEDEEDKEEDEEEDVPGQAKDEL
Text: (§3) FIGS. 14A-14B. […] Live cells were stained with anti-calreticulin (CRT) antibody conjugated by a fluorophore. […] Live cells were stained with LRP1 cluster IV-Fc protein followed by a secondary anti-Fc antibody conjugated to a fluorophore.

Molm 13 cells = test: Cell surface calreticulin on staurosporine-treated Molm 13 cells, flow cytometry; assay type: cell-based, human; conditions: live cells, compared to isotype control
Text: as §3

NBM cells = test: In vitro phagocytosis assay, human NBM cells with human macrophages; assay type: cell-based; conditions: vs vehicle or IgG1 isotype control
Text: Next, the relationship between the level of tumor cell surface CRT expression and level of phagocytosis by anti-CD47 antibody was investigated. Cell surface CRT expression on tumor cells positively correlated with the degree of anti-CD47 antibody mediated phagocytosis, regardless of tumor cell type (FIG. 3D). Finally, given that normal cells express minimal levels of cell surface CRT, we investigated whether the addition of CRT to the surface of these cells could enable phagocytosis.
as §2

[3] = test system: primary human normal cells; test: In vitro phagocytosis assay, normal human tissue cells with human macrophages; assay type: cell-based; conditions: several normal human tissue types, vs IgG1 isotype control
Protocol: as §1
as §2, with “Per MBL, confirmation of blocking activity was performed by Western blot analysis, verified by incubation of an anti-CRT antibody with 5 times higher concentration of the peptide and performing a Western blot analysis to determine if the specific band had been diminished.” left out

blocking of LRP1 cluster IV-Fc protein binding ([2]; staurosporine-treated Molm 13 cells): can be blocked
Molecule: RAP: receptor-associated protein (RAP), an inhibitor of LRP (Fitzgerald Industries International)
anti-CD47 antibody-mediated phagocytosis of cancer cells ([1]; in the presence of anti-CD47 antibody): completely abrogated in most cases; also recorded: completely abrogated anti-CD47 antibody-mediated phagocytosis
phagocytosis of primary human cancer cells, agent alone [1]: did not enable phagocytosis
phagocytosis of primary human cancer cells, agent alone ([1]; listed as LRP): no effect on phagocytosis

Molecule: CN[C@@H]1C[C@H]2O[C@@](C)([C@@H]1OC)n1c3ccccc3c3c4c(c5c6ccccc6n2c5c31)C(=O)NC4 [staurosporine]
cell surface calreticulin (Molm 13 cells): increase in cell surface calreticulin

binding to staurosporine-treated Molm 13 cells ([2]; live cells, secondary anti-Fc antibody, flow cytometry): increase in the binding
Molecule: LRP1 cluster IV-Fc protein: LRP1 cluster IV fused to Fc, used to stain cell surface calreticulin

B1: exogenous CRT: recombinant CRT human protein (Thermo Scientific), adsorbs onto the cellular surface and directly binds LRP (protein, UniProt P27797 18-417, looked up)
Calreticulin: T1 sequence (P27797 18-417)
phagocytosis of NBM cells (NBM cells): enabled phagocytosis of NBM cells; also recorded: enabled increased phagocytosis
phagocytosis of NBM cells (NBM cells; listed as Exogenous CRT): enabled increased phagocytosis of NBM cells

B2: anti-CD47 antibody: blocking monoclonal anti-human CD47 antibody, clone B6H12.2, ATCC (antibody, V domains shown)
VH: EVQLVESGGDLVKPGGSLKLSCAASGFTFSGYGMSWVRQTPDKRLEWVATITSGGTYTYYPDSVKGRFTISRDNAKNTLYLQIDSLKSEDTAIYFCARSLAGNAMDYWGQGTSVTVSS
VL: DIVMTQSPATLSVTPGDRVSLSCRASQTISDYLHWYQQKSHESPRLLIKFASQSISGIPSRFSGSGSGSDFTLSINSVEPEDVGVYYCQNGHGFPRTFGGGTKLEIK
phagocytosis of primary human cancer cells, agent alone [1]: robustly phagocytosed; also recorded: are phagocytosed; also recorded: enabled phagocytosis of cancer cells
phagocytosis of normal human cells [3]: not phagocytosed; also recorded: No difference in phagocytosis
phagocytosis of NBM cells (NBM cells): did not; also recorded: No difference in phagocytosis
